Reference: patent publication US9962507B2, “Droplet delivery device for delivery of fluids to the pulmonary system and methods of use” (PNEUMA RESPIRATORY, INC., priority 2016, dated 2018)

Key:
Format in all cases: physicochemical
[1] = Anderson Cascade Impactor testing of Albuterol sulfate aerosol from the droplet delivery device (Example B); settings: Albuterol 0.5%, 28.3 lpm
Method: Droplet size distribution and related functionality was evaluated for exemplary droplet delivery devices of the disclosure, including Anderson Cascade Impactor testing, total drug mass output rates, total drug respirable mass, delivery efficiencies and reproducibility.
The study was designed to evaluate device performance of a single Pneuma™ inhaler. A series of three (3) individual tests were conducted with a new disposable drug cartridge for each test. The testing platform utilizes an eight-stage nonviable Anderson Cascade Impactor (Thermo Fisher Scientific; Waltham, Mass.) equipped with a calibrated AALBORG model GFM47 mass flow meter (AALBORG Instruments and Controls; Orangeburg, N.Y.) for flow rate measurement.
At the conclusion of each test, the mouthpiece was rinsed with mobile phase and collected for HPLC analysis to determine the mass fraction of non-respirable aerosolized drug captured in the mouthpiece via inertial filtering. Following each test, impactor stage samples were extracted and recovered in solvent and analyzed for the active pharmaceutical ingredient (API) using a Dionex Ultimate 3000 nano-HPLC with UV detection (Thermo Scientific, Sunnyvale, Calif.).
The cascade impactor testing procedure involved fitting the mouthpiece into the Impactor USP throat with a mouthpiece connection seal. […]
The device was connected to the impactor USB throat, turned on, and actuated ten (10) times for each test. […] The i mouthpiece was rinsed in order to extract drug, and all stages of the cascade impactor were rinsed with a quantity of appropriate solvent (HPLC mobile phase). Extracted samples were placed in labeled and sterile HPLC vials, capped, and analyzed for drug content via HPLC with UV detection. The mouthpiece was extracted of residual drug and analyzed for drug content via HPLC to measure mouthpiece drug deposition in relation to the total collected on the impactor stages.
All system flow rates and impactor sample flows were monitored throughout each test period. […]

[2] = Gravimetric analysis of delivered dose per actuation; settings: average of five doses (actuations)
Method: Gravimetric analysis was performed by weighing the Enbrel solution filled ampule before and after dosing. The average of five doses (actuations) were analyzed with an average of 4.25 mg+/−0.15 mg. The total delivered dose of Enbrel per actuation is therefore […] per actuation.
Gravimetric analysis was performed by weighing the Insulin solution filled ampule before and after dosing. The average of five doses (actuations) were analyzed with an average of 5.01 mg+/−0.53 mg. The total delivered dose of Insulin per actuation is therefore 34.8 mcg per actuation.

[3] = Size exclusion chromatography (SEC) stability after aerosol generation with test device
From the text: Alternately, to determine the stability of active agent after droplet generation, the generated stream of droplets including the active agent may be collected and […] may be employed to monitor for any changes in large molecule aggregation and protein fragment content. Soluble protein aggregates and protein fragment content may be calculated by comparing respective peak area under the SEC-HPLC curve of dispensed protein solutions with controls (solutions remaining in the device reservoir). Drug solutions for testing include Enbrel, (ENBREL® single-use prefilled syringes in 25 mg (0.51 mL of a 50 mg/mL solution of etanercept), and insulin, (Humalog, 200 units/ml, 3 ml […] is performed with a […] 3 μm SEC-2000 LC column 300×7.8 mm, SecurityGuard cartridge kit and SecurityGuard cartridges GFC-2000, 4×3 mm ID. Fifty microliters of Enbrel from the syringe (ENBREL® single-use prefilled syringes in 25 mg/0.51 mL of a 50 mg/mL solution of etanercept) is diluted (4:1) (4 parts, 200 mcl of the mobile phase buffer solution to 1 part, 50 mcl Enbrel from syringe). Fifty microliter of the diluted Enbrel is injected and separation was performed at a flow rate of 1.0 ml/min. The mobile phase buffer system included a PHOS. BUFF. SALINE. […] UV detection is performed at 280 nm. […] Aerosol collection and SEC is performed in a similar fashion as for the Enbrel analysis and aerosol collection. […] Fifty microliters of the collected aerosol spray is injected onto the SEC column for analysis, while 50 mcl of the […] insulin solution is injected onto the SEC column for control samples.

[4] = Gel electrophoresis of active agent after droplet generation
From the text: To determine the stability of active agent after droplet generation, the generated stream of droplets including the active agent is collected and the molecular weight of the active agent is verified using gel electrophoresis.

[5] = Enbrel control (not aerosolized)

Question: With Albuterol sulfate as the substance, how does the “droplets of an average diameter of less than about 4 μm” value ([1]; 10 actuations) read?
Answer: The value was “over 70%”.

Question: What about the Fine ([1]; fraction summary table) of the same substance?
Answer: The Fine was 3.5.

Question: What about the Throat ([1]; fraction summary table) of the same substance?
Answer: The Throat was 4.6.

Question: Which results are given for “Insulin: insulin, Humalog, 200 units/ml, 3 ml kwikpens”?
Answer: average solution mass per dose (actuation), ampule weighed before and after dosing [2]: 5.01 mg; Peak Area %, Peak 3, Avg. ([3]; Insulin aerosolized, average of S1 and S2): 2.4905%; Peak Area %, Peak 3 ([3]; Insulin control (not aerosolized)): 0%; ejected dose that forms a fragment ([3]; Insulin, fragment elutes at ~25 minutes): 2.5%

Question: Which results are given for etanercept [Enbrel]?
Answer: change in electrophoretic mobility (molecular weight) of post-aerosol active agent versus control [4]: negligible change; average solution mass per dose (actuation), ampule weighed before and after dosing [2]: 4.25 mg; Peak Area %, Peak 4 [3, 5]: 0%; Peak Area %, Peak 5 [3, 5]: 0%; dose that leads to formation of molecular fragments ([3]; Enbrel, fragments with elution times of 13 and 25 minutes): 4.6%
